“And” between values parts separate entries of the source, which are not always exact repeats. Equal entries are not always repeated.
B1: Dihydrolipoyllysine-residue succinyltransferase component of 2-oxoglutarate dehydrogenase complex, P0AFG6 (parent)
chain: MSSVDILVPDLPESVADATVATWHKKPGDAVVRDEVLVEIETDKVVLEVPASADGILDAVLEDEGTTVTSRQILGRLREGNSAGKETSAKSEEKASTPAQRQQASLEEQNNDALSPAIRRLLAEHNLDASAIKGTGVGGRLTREDVEKHLAKAPAKESAPAAAAPAAQPALAARSEKRVPMTRLRKRVAERLLEAKNSTAMLTTFNEVNMKPIMDLRKQYGEAFEKRHGIRLGFMSFYVKAVVEALKRYPEVNASIDGDDVVYHNYFDVSMAVSTPRGLVTPVLRDVDTLGMADIEKKIKELAVKGRDGKLTVEDLTGGNFTITNGGVFGSLMSTPIINPPQSAILGMHAIKDRPMAVNGQVEILPMMYLALSYDHRLIDGRESVGFLVTIKELLEDPTRLLLDV

Variants of: B1
Settings: Escherichia coli (strain K12), pH 7, structure 1W4H, whole UniProt chain shown
[1] = 10 °C, GdnHCl, CD, 3-[morpholino]propanesulfonic acid 50 mM, NaCl 200 mM
[2] = 10 °C, GdnHCl, Fluorescence, 3-[morpholino]propanesulfonic acid 50 mM, NaCl 200 mM
[3] = Thermal, CD, Potassium phosphate 50 mM, KCl 200 mM

Q: For L127A, which “ddG of mutation (higher = less stable)” value [1] is on record?
A: The value was 1.37 kcal/mol.

Q: What about the denaturant m value [1] of the same variant?
A: The denaturant m value was 0.63 kcal/mol/M.

Q: And the “denaturant midpoint (higher = more stable)” value (shortened to “denaturant midpoint”) [1]?
A: The value was 1.95 M.

Q: What about the unfolding free energy [1] of the same variant?
A: Its unfolding free energy is 1.23 kcal/mol.

Q: And the denaturant m value [2]?
A: Its denaturant m value is 0.41 kcal/mol/M and 0.18 kcal/mol/M.

Q: What about the unfolding free energy [2] of the same variant?
A: Its unfolding free energy is 1.2 kcal/mol.

Q: What about the Tm [3] of the same variant?
A: Its Tm is 29.2 °C.

Q: What about the “ddG of mutation (higher = less stable)” value [3] of the same variant?
A: Its value is 1.9 kcal/mol.

Q: What about the “unfolding enthalpy (van 't Hoff)” value [3] of the same variant?
A: Its value is 12 kcal/mol.

Q: What does the source list for A129G?
A: ddG of mutation (higher = less stable) [1]: 0.56 kcal/mol; denaturant m value [1]: 0.72 kcal/mol/M; denaturant midpoint (higher = more stable) [1]: 3.07 M; unfolding free energy [1]: 2.21 kcal/mol; denaturant m value [2]: 0.5 kcal/mol/M and 0.2 kcal/mol/M; unfolding free energy [2]: 2.22 kcal/mol; Tm [3]: 46.5 °C; ddG of mutation (higher = less stable) [3]: 0.58 kcal/mol; unfolding enthalpy (van 't Hoff) [3]: 22 kcal/mol

Q: What does the source list for A131G?
A: ddG of mutation (higher = less stable) [1]: 0.52 kcal/mol; denaturant m value [1]: 0.71 kcal/mol/M; denaturant midpoint (higher = more stable) [1]: 3.12 M; unfolding free energy [1]: 2.22 kcal/mol; denaturant m value [2]: 0.43 kcal/mol/M and 0.28 kcal/mol/M; unfolding free energy [2]: 2.44 kcal/mol; Tm [3]: 48.5 °C; ddG of mutation (higher = less stable) [3]: 0.43 kcal/mol; unfolding enthalpy (van 't Hoff) [3]: 21 kcal/mol

Q: What does the source list for I132V?
A: ddG of mutation (higher = less stable) [1]: 0.7 kcal/mol; denaturant m value [1]: 0.73 kcal/mol/M; denaturant midpoint (higher = more stable) [1]: 2.88 M; unfolding free energy [1]: 2.1 kcal/mol; denaturant m value [2]: 0.47 kcal/mol/M; Tm [3]: 44.4 °C; ddG of mutation (higher = less stable) [3]: 0.75 kcal/mol; unfolding enthalpy (van 't Hoff) [3]: 22 kcal/mol

Q: For T135A, which “ddG of mutation (higher = less stable)” value [1] is on record?
A: Its value is 1.68 kcal/mol.

Q: And the denaturant m value [1]?
A: The denaturant m value was 0.69 kcal/mol/M.

Q: What about the “denaturant midpoint” value [1] of the same variant?
A: The value was 1.51 M.

Q: And the unfolding free energy [1]?
A: Its unfolding free energy is 1.04 kcal/mol.

Q: And the unfolding free energy [2]?
A: The unfolding free energy was 0.78 kcal/mol.

Q: What about the Tm [3] of the same variant?
A: Its Tm is 36.4 °C.

Q: What about the “ddG of mutation (higher = less stable)” value [3] of the same variant?
A: The value was 1.36 kcal/mol.

Q: And the “unfolding enthalpy (van 't Hoff)” value [3]?
A: The value was 9 kcal/mol.

Q: With V137G as the variant, how does the “ddG of mutation (higher = less stable)” value [1] read?
A: Its value is 0.98 kcal/mol.

Q: What about the denaturant m value [1] of the same variant?
A: The denaturant m value was 0.73 kcal/mol/M.

Q: What about the “denaturant midpoint” value [1] of the same variant?
A: Its value is 2.49 M.

Q: What about the unfolding free energy [1] of the same variant?
A: Its unfolding free energy is 1.82 kcal/mol.

Q: And the denaturant m value [2]?
A: The denaturant m value was 0.47 kcal/mol/M and 0.24 kcal/mol/M.

Q: And the unfolding free energy [2]?
A: Its unfolding free energy is 2.03 kcal/mol.

Q: What about the Tm [3] of the same variant?
A: The Tm was 43.1 °C.

Q: And the “ddG of mutation (higher = less stable)” value [3]?
A: The value was 0.84 kcal/mol.

Q: And the “unfolding enthalpy (van 't Hoff)” value [3]?
A: Its value is 18 kcal/mol.

Q: With H149G as the variant, how does the “ddG of mutation (higher = less stable)” value [1] read?
A: The value was 1.87 kcal/mol.

Q: What about the denaturant m value [1] of the same variant?
A: Its denaturant m value is 0.64 kcal/mol/M.

Q: And the “denaturant midpoint” value [1]?
A: The value was 1.25 M.

Q: What about the unfolding free energy [1] of the same variant?
A: The unfolding free energy was 0.8 kcal/mol.

Q: And the denaturant m value [2]?
A: The denaturant m value was 0.45 kcal/mol/M and 0.21 kcal/mol/M.

Q: What about the unfolding free energy [2] of the same variant?
A: The unfolding free energy was 0.93 kcal/mol.

Q: What about the Tm [3] of the same variant?
A: Its Tm is 33.9 °C.

Q: And the “ddG of mutation (higher = less stable)” value [3]?
A: Its value is 1.58 kcal/mol.

Q: What about the “unfolding enthalpy (van 't Hoff)” value [3] of the same variant?
A: Its value is 8 kcal/mol.

Q: Which “ddG of mutation (higher = less stable)” value [1] does the source give for L150A here?
A: Its value is 0.6 kcal/mol and 0.74 kcal/mol.

Q: What about the denaturant m value [1] of the same variant?
A: Its denaturant m value is 0.71 kcal/mol/M and 0.69 kcal/mol/M.

Q: What about the “denaturant midpoint” value [1] of the same variant?
A: Its value is 3.02 M and 1.98 M.

Q: What about the unfolding free energy [1] of the same variant?
A: The unfolding free energy was 2.14 kcal/mol and 1.37 kcal/mol.

Q: And the unfolding free energy [2]?
A: The unfolding free energy was 2.13 kcal/mol and 1.46 kcal/mol.

Q: And the “ddG of mutation (higher = less stable)” value [3]?
A: Its value is 0.57 kcal/mol and 1.18 kcal/mol.

Q: What about the “unfolding enthalpy (van 't Hoff)” value [3] of the same variant?
A: Its value is 23 kcal/mol and 18 kcal/mol.

Q: Which denaturant m value [1] does the source give for L114W here?
A: The denaturant m value was 0.67 kcal/mol/M.

Q: What about the “denaturant midpoint” value [1] of the same variant?
A: Its value is 3.15 M.

Q: And the unfolding free energy [1]?
A: The unfolding free energy was 2.11 kcal/mol.

Q: And the unfolding free energy [2]?
A: The unfolding free energy was 2.22 kcal/mol.

Q: Which results are given for H125W?
A: denaturant m value [1]: 0.7 kcal/mol/M; denaturant midpoint (higher = more stable) [1]: 3.96 M; unfolding free energy [1]: 2.77 kcal/mol; unfolding free energy [2]: 2.55 kcal/mol; Tm [3]: 54.1 °C; unfolding enthalpy (van 't Hoff) [3]: 25 kcal/mol

Q: With L141A as the variant, how does the denaturant m value [2] read?
A: Its denaturant m value is 0.48 kcal/mol/M.

Q: What about the unfolding free energy [2] of the same variant?
A: The unfolding free energy was 0.46 kcal/mol.

Q: What about the Tm [3] of the same variant?
A: Its Tm is 26.4 °C.

Q: What about the “ddG of mutation (higher = less stable)” value [3] of the same variant?
A: The value was 2.12 kcal/mol.

Q: What about the “unfolding enthalpy (van 't Hoff)” value [3] of the same variant?
A: The value was 10 kcal/mol.

Q: Which denaturant m value [2] does the source give for T142S here?
A: The denaturant m value was 0.53 kcal/mol/M and 0.2 kcal/mol/M.

Q: What about the unfolding free energy [2] of the same variant?
A: Its unfolding free energy is 1.45 kcal/mol.

Q: For D145N, which denaturant m value [2] is on record?
A: The denaturant m value was 0.17 kcal/mol/M.

Q: What about the Tm [3] of the same variant?
A: The Tm was 13.8 °C.

Q: And the “ddG of mutation (higher = less stable)” value [3]?
A: The value was 3.1 kcal/mol.

Q: And the “unfolding enthalpy (van 't Hoff)” value [3]?
A: The value was 5 kcal/mol.

Q: For V146A, which denaturant m value [2] is on record?
A: The denaturant m value was 0.48 kcal/mol/M and 0.16 kcal/mol/M.

Q: What about the unfolding free energy [2] of the same variant?
A: The unfolding free energy was 0.47 kcal/mol.

Q: And the Tm [3]?
A: Its Tm is 27.9 °C.

Q: What about the “ddG of mutation (higher = less stable)” value [3] of the same variant?
A: Its value is 2.02 kcal/mol.

Q: And the “unfolding enthalpy (van 't Hoff)” value [3]?
A: Its value is 9 kcal/mol.

Q: What does the source list for A113G?
A: Tm [3]: 53.6 °C; ddG of mutation (higher = less stable) [3]: 0.04 kcal/mol; unfolding enthalpy (van 't Hoff) [3]: 23 kcal/mol

Q: Which Tm [3] does the source give for P116A here?
A: The Tm was 59.1 °C.

Q: And the “ddG of mutation (higher = less stable)” value [3]?
A: The value was -0.38 kcal/mol.

Q: What about the “unfolding enthalpy (van 't Hoff)” value [3] of the same variant?
A: Its value is 24 kcal/mol.

Q: For A117G, which Tm [3] is on record?
A: Its Tm is 49.4 °C.

Q: And the “ddG of mutation (higher = less stable)” value [3]?
A: Its value is 0.37 kcal/mol.

Q: And the “unfolding enthalpy (van 't Hoff)” value [3]?
A: The value was 23 kcal/mol.

Q: What does the source list for I118V?
A: Tm [3]: 53.8 °C; ddG of mutation (higher = less stable) [3]: 0.03 kcal/mol; unfolding enthalpy (van 't Hoff) [3]: 26 kcal/mol

Q: With T135S as the variant, how does the Tm [3] read?
A: The Tm was 50.4 °C.

Q: And the “ddG of mutation (higher = less stable)” value [3]?
A: Its value is 0.29 kcal/mol.

Q: And the “unfolding enthalpy (van 't Hoff)” value [3]?
A: Its value is 21 kcal/mol.

Q: For H149A, which Tm [3] is on record?
A: Its Tm is 55 °C.

Q: And the “ddG of mutation (higher = less stable)” value [3]?
A: The value was -0.06 kcal/mol.

Q: And the “unfolding enthalpy (van 't Hoff)” value [3]?
A: Its value is 22 kcal/mol.

Q: For A151G, which Tm [3] is on record?
A: The Tm was 53.2 °C.

Q: And the “ddG of mutation (higher = less stable)” value [3]?
A: Its value is 0.07 kcal/mol.

Q: What about the “unfolding enthalpy (van 't Hoff)” value [3] of the same variant?
A: The value was 21 kcal/mol.

Source: FireProtDB (doi:10.1016/j.jmb.2009.05.011)
